Laboratory results: patent publication US20220042033A1, “COMPOSITION AND METHOD FOR CONFERRING AND/OR ENHANCING TOLERANCE AGAINST HERBICIDES BY USING VARIANTS OF PPO” (FarmHannong Co., Ltd., priority 2017, published 2022)

B1: F209A: ApPPO1 (SEQ ID NO: 1) variant (protein)
chain: MPFTHLKPLNRLLGSPRARHPHVAPQAVSVTNTSTTRPGGRSSAPGIPGDAEYDVVIVGAGISGLTTAQALAKQYSDAVPRLLVTEARDCVGGNIITRRDGGYQWEEGPNSFQPSDAVLRAAVDAGVADRLVLGDPKAPRYVYWGGRLRATPSGPDVLTFDLLSLWGKLRAGLGAAGFKAPLPEREESVKEFVTRNLGEEVFQRLIEPACSGVYAGDPAKLSMKAAFGKVYDLEKGGGSIVGGVLALMKARKQKPPEPRPADLPPKPKGQTVGSFDKGLVTLPSAIAEELGDRVVTGWKLESIDRSGDRFQLTYDTPQGRKKVSARSVALTVPAYTAASLLESRFPKLGKALSSIYYPPVASVALSYPETAILPERLGSDGHLAGFGQLHPRTQGVTTLGTIYASSLFPGRVPEGKVLLLSYFGGATNTRVATMPHGEIVSQVDKDLRKMLIRSDAESPHTVNVTVWPRAIPQFNVGHTDLIQEAKDDLASQGWQGLHLGGNYVAGVALGKCMEAGYKQAAELASHVKSLAT
modifications: Synthetic (Protoporphyrinogen IX oxidase (ApPPO1) of Auxenochlorella protothecoides)
B2: V360M: ApPPO1 (SEQ ID NO: 1) variant (protein)
chain: MPFTHLKPLNRLLGSPRARHPHVAPQAVSVTNTSTTRPGGRSSAPGIPGDAEYDVVIVGAGISGLTTAQALAKQYSDAVPRLLVTEARDCVGGNIITRRDGGYQWEEGPNSFQPSDAVLRAAVDAGVADRLVLGDPKAPRYVYWGGRLRATPSGPDVLTFDLLSLWGKLRAGLGAAGFKAPLPEREESVKEFVTRNLGEEVFQRLIEPFCSGVYAGDPAKLSMKAAFGKVYDLEKGGGSIVGGVLALMKARKQKPPEPRPADLPPKPKGQTVGSFDKGLVTLPSAIAEELGDRVVTGWKLESIDRSGDRFQLTYDTPQGRKKVSARSVALTVPAYTAASLLESRFPKLGKALSSIYYPPMASVALSYPETAILPERLGSDGHLAGFGQLHPRTQGVTTLGTIYASSLFPGRVPEGKVLLLSYFGGATNTRVATMPHGEIVSQVDKDLRKMLIRSDAESPHTVNVTVWPRAIPQFNVGHTDLIQEAKDDLASQGWQGLHLGGNYVAGVALGKCMEAGYKQAAELASHVKSLAT
modifications: Synthetic (Protoporphyrinogen IX oxidase (ApPPO1) of Auxenochlorella protothecoides)
B3: A215C: ApPPO1 (SEQ ID NO: 1) variant (protein)
chain: MPFTHLKPLNRLLGSPRARHPHVAPQAVSVTNTSTTRPGGRSSAPGIPGDAEYDVVIVGAGISGLTTAQALAKQYSDAVPRLLVTEARDCVGGNIITRRDGGYQWEEGPNSFQPSDAVLRAAVDAGVADRLVLGDPKAPRYVYWGGRLRATPSGPDVLTFDLLSLWGKLRAGLGAAGFKAPLPEREESVKEFVTRNLGEEVFQRLIEPFCSGVYCGDPAKLSMKAAFGKVYDLEKGGGSIVGGVLALMKARKQKPPEPRPADLPPKPKGQTVGSFDKGLVTLPSAIAEELGDRVVTGWKLESIDRSGDRFQLTYDTPQGRKKVSARSVALTVPAYTAASLLESRFPKLGKALSSIYYPPVASVALSYPETAILPERLGSDGHLAGFGQLHPRTQGVTTLGTIYASSLFPGRVPEGKVLLLSYFGGATNTRVATMPHGEIVSQVDKDLRKMLIRSDAESPHTVNVTVWPRAIPQFNVGHTDLIQEAKDDLASQGWQGLHLGGNYVAGVALGKCMEAGYKQAAELASHVKSLAT
modifications: Synthetic (Protoporphyrinogen IX oxidase (ApPPO1) of Auxenochlorella protothecoides)
B4: L389T: ApPPO1 (SEQ ID NO: 1) variant (protein)
chain: MPFTHLKPLNRLLGSPRARHPHVAPQAVSVTNTSTTRPGGRSSAPGIPGDAEYDVVIVGAGISGLTTAQALAKQYSDAVPRLLVTEARDCVGGNIITRRDGGYQWEEGPNSFQPSDAVLRAAVDAGVADRLVLGDPKAPRYVYWGGRLRATPSGPDVLTFDLLSLWGKLRAGLGAAGFKAPLPEREESVKEFVTRNLGEEVFQRLIEPFCSGVYAGDPAKLSMKAAFGKVYDLEKGGGSIVGGVLALMKARKQKPPEPRPADLPPKPKGQTVGSFDKGLVTLPSAIAEELGDRVVTGWKLESIDRSGDRFQLTYDTPQGRKKVSARSVALTVPAYTAASLLESRFPKLGKALSSIYYPPVASVALSYPETAILPERLGSDGHLAGFGQTHPRTQGVTTLGTIYASSLFPGRVPEGKVLLLSYFGGATNTRVATMPHGEIVSQVDKDLRKMLIRSDAESPHTVNVTVWPRAIPQFNVGHTDLIQEAKDDLASQGWQGLHLGGNYVAGVALGKCMEAGYKQAAELASHVKSLAT
modifications: Synthetic (Protoporphyrinogen IX oxidase (ApPPO1) of Auxenochlorella protothecoides)
B5: I402T: ApPPO1 (SEQ ID NO: 1) variant (protein)
chain: MPFTHLKPLNRLLGSPRARHPHVAPQAVSVTNTSTTRPGGRSSAPGIPGDAEYDVVIVGAGISGLTTAQALAKQYSDAVPRLLVTEARDCVGGNIITRRDGGYQWEEGPNSFQPSDAVLRAAVDAGVADRLVLGDPKAPRYVYWGGRLRATPSGPDVLTFDLLSLWGKLRAGLGAAGFKAPLPEREESVKEFVTRNLGEEVFQRLIEPFCSGVYAGDPAKLSMKAAFGKVYDLEKGGGSIVGGVLALMKARKQKPPEPRPADLPPKPKGQTVGSFDKGLVTLPSAIAEELGDRVVTGWKLESIDRSGDRFQLTYDTPQGRKKVSARSVALTVPAYTAASLLESRFPKLGKALSSIYYPPVASVALSYPETAILPERLGSDGHLAGFGQLHPRTQGVTTLGTTYASSLFPGRVPEGKVLLLSYFGGATNTRVATMPHGEIVSQVDKDLRKMLIRSDAESPHTVNVTVWPRAIPQFNVGHTDLIQEAKDDLASQGWQGLHLGGNYVAGVALGKCMEAGYKQAAELASHVKSLAT
modifications: Synthetic (Protoporphyrinogen IX oxidase (ApPPO1) of Auxenochlorella protothecoides)
B6: F386V: ApPPO1 (SEQ ID NO: 1) variant (protein)
chain: MPFTHLKPLNRLLGSPRARHPHVAPQAVSVTNTSTTRPGGRSSAPGIPGDAEYDVVIVGAGISGLTTAQALAKQYSDAVPRLLVTEARDCVGGNIITRRDGGYQWEEGPNSFQPSDAVLRAAVDAGVADRLVLGDPKAPRYVYWGGRLRATPSGPDVLTFDLLSLWGKLRAGLGAAGFKAPLPEREESVKEFVTRNLGEEVFQRLIEPFCSGVYAGDPAKLSMKAAFGKVYDLEKGGGSIVGGVLALMKARKQKPPEPRPADLPPKPKGQTVGSFDKGLVTLPSAIAEELGDRVVTGWKLESIDRSGDRFQLTYDTPQGRKKVSARSVALTVPAYTAASLLESRFPKLGKALSSIYYPPVASVALSYPETAILPERLGSDGHLAGVGQLHPRTQGVTTLGTIYASSLFPGRVPEGKVLLLSYFGGATNTRVATMPHGEIVSQVDKDLRKMLIRSDAESPHTVNVTVWPRAIPQFNVGHTDLIQEAKDDLASQGWQGLHLGGNYVAGVALGKCMEAGYKQAAELASHVKSLAT
modifications: Synthetic (Protoporphyrinogen IX oxidase (ApPPO1) of Auxenochlorella protothecoides)
B7: V213C: ApPPO1 (SEQ ID NO: 1) variant (protein)
chain: MPFTHLKPLNRLLGSPRARHPHVAPQAVSVTNTSTTRPGGRSSAPGIPGDAEYDVVIVGAGISGLTTAQALAKQYSDAVPRLLVTEARDCVGGNIITRRDGGYQWEEGPNSFQPSDAVLRAAVDAGVADRLVLGDPKAPRYVYWGGRLRATPSGPDVLTFDLLSLWGKLRAGLGAAGFKAPLPEREESVKEFVTRNLGEEVFQRLIEPFCSGCYAGDPAKLSMKAAFGKVYDLEKGGGSIVGGVLALMKARKQKPPEPRPADLPPKPKGQTVGSFDKGLVTLPSAIAEELGDRVVTGWKLESIDRSGDRFQLTYDTPQGRKKVSARSVALTVPAYTAASLLESRFPKLGKALSSIYYPPVASVALSYPETAILPERLGSDGHLAGFGQLHPRTQGVTTLGTIYASSLFPGRVPEGKVLLLSYFGGATNTRVATMPHGEIVSQVDKDLRKMLIRSDAESPHTVNVTVWPRAIPQFNVGHTDLIQEAKDDLASQGWQGLHLGGNYVAGVALGKCMEAGYKQAAELASHVKSLAT
modifications: Synthetic (Protoporphyrinogen IX oxidase (ApPPO1) of Auxenochlorella protothecoides)

The molecules below were run on ApPPO1 (assay: PPO enzyme activity of purified MBP-fused ApPPO1 wild type and variants). Conditions: PPO enzyme activity relative to ApPPO1 wild type; MBP-fused protein.
Assay type: biochemical, Auxenochlorella protothecoides
Description: Thus, PPO proteins of wild type and variants were expressed as fused to MBP and were used for experiments.
The following process for purification of PPO protein was performed in a 4° C. cold room. […] The column was washed with 3 column volumes of buffer and the presence of protein in the washing solution was examined. When the protein was no longer detected, the washing procedure was terminated. Then, the MBP-PPO protein was eluted with approximately 2 column volumes of buffer containing 20 mM maltose. The protein concentration of each eluent was determined and the elution was stopped when the protein was no longer detected. Ten microliter of each fraction was investigated for protein quantification and SDS-PAGE analysis. The highly pure fractions of PPO protein variants were used for the enzyme assay.
Since protoporphyrinogen IX, a substrate of PPO protein, was not commercially available, it was chemically synthesized in the laboratory. Overall process was performed in dark under nitrogen stream. […] of protoporphyrin IX was dissolved in 20 ml of 20% (v/v) EtOH, and stirred under dark condition for 30 minutes. The obtained protoporphyrin IX solution was put into a 15 ml screw tube in an amount of 800 μl, and flushed with nitrogen gas for 5 minutes. To this, 1.5 g of sodium amalgam was added and vigorously shaken for 2 minutes. The lid was opened to exhaust hydrogen gas in the tube. Thereafter, the lid was closed and incubated for 3 minutes. The protoporphyrinogen IX solution was filtered using syringe and cellulose membrane filter. To 600 μl of the obtained protoporphyrinogen IX solution, approximately 300 μl of 2M MOPS [3-(N-morpholino) propanesulfonic acid] was added to adjust pH to 8.0. To determine the enzyme activity of PPO protein, a reaction mixture was prepared with the following composition (based on 10 ml): 50 mM Tris-Cl (pH 8.0); 50 mM NaCl; 0.04% (v/v) Tween 20; 40 mM glucose (0.072 g); 5 units glucose oxidase (16.6 mg); and 10 units catalase (1 μl).
Hundred and eighty microliters of a reaction mixture […] were placed in 96 well plates and 20 μl of purified PPO proteins were added. After 50 μl of the mineral oil was layered, the reaction was initiated by adding the substrate, protoporphyrinogen IX solution, to a final concentration of 50 μM. The reaction proceeded at room temperature for 30 min and the fluorescence of protoporphyrin IX was measured using Microplate reader (Sense, Hidex) (excitation: 405 nm; emission: 633 nm). To calculate the PPO enzyme activity, the protoporphyrinogen IX solution was kept open in the air overnight to oxidize the solution. To this, 2.7 N HCl was added, and the absorbance at 408 nm was measured. A standard curve was generated using standard protoporphyrin IX, and PPO activity was measured by calibration of protoporphyrin IX using the standard curve of protoporphyrin IX.
Activities of variants were presented relatively compared to that of wild type.

Point of comparison: B5, “Activity (%)” value 16%. Against it:
- B1 — higher, 78%
- B2 — higher, 59%
- B3 — higher, 89%
- B4 — lower, 11%
- B6 — higher, 86%
- B7 — higher, 85%
